From PMC9360449, “Programmable RNA targeting by bacterial Argonaute nucleases with unconventional guide binding and cleavage specificity”

Columns and labels:
[1] = test system: PnyAgo WT (Pedobacter nyackensis); experiment: filter binding; conditions: 10 mM Tris-HCl pH 7.9, 100 mM NaCl, 5 mM MgCl2 (or none), 5% glycerol, 100 ug/ml BSA, 37 C
[2] = test system: PnyAgo WT (Pedobacter nyackensis); experiment: competition; conditions: filter binding, 100 nM pAgo; 5'-OH; 10 mM Tris-HCl pH 7.9, 100 mM NaCl, 5 mM MgCl2 (or none), 5% glycerol, 100 ug/ml BSA, 37 C
PliAgo WT [3] = biological target: T1, PliAgo WT (Pseudooceanicola lipolyticus, UniProt A0A2M8J4C7 1-789); experiment: X-ray crystallography; 10 mM Tris-HCl pH 7.9, 100 mM NaCl, 5 mM MgCl2 (or none), 5% glycerol, 100 ug/ml BSA, 37 C; conditions: protein: recombinant; tags: N-His6; single strand
T1 sequence: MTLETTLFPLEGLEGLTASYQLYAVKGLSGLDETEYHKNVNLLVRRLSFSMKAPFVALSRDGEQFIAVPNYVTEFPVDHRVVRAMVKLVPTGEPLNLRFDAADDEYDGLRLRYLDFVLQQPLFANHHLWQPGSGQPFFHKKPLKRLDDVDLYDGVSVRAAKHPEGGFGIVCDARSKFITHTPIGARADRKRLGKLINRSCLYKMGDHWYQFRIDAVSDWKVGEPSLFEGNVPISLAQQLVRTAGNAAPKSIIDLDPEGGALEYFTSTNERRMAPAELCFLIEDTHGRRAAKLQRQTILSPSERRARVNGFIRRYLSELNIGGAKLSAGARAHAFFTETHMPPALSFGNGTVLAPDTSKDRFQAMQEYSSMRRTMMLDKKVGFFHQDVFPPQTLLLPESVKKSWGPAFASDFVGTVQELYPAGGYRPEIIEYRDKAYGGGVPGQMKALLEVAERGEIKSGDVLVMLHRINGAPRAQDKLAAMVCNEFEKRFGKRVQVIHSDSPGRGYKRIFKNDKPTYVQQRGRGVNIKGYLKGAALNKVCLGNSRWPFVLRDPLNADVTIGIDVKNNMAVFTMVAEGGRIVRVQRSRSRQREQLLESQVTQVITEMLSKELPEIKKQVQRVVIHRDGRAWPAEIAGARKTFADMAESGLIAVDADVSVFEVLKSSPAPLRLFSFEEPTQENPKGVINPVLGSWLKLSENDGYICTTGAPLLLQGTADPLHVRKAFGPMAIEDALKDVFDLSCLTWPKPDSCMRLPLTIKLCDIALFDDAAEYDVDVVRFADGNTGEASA

PliAgo WT [4] = biological target: T1, PliAgo WT; experiment: X-ray crystallography; no Mg2+; conditions: protein: recombinant; tags: N-His6; single strand

Q: How did the Kd ([1]; guide-loaded, 5'-phosphate on guide) turn out when “GTTAGACTTTAAGTCAAT / UUUAUCAAAAAGAGUAUUGACUUAAAGUCUAACCUAUAGGAUACUUACAG [guide DNA / G-target-RNA]” was run?
A: Its Kd is 7.5 nM.

Q: With “GTTAGACTTTAAGTCAAT [5'-OH guide DNA (G-guide)]” as the molecule, how does the binding signal (fold Kd increase vs 5'-P guide) [2] read?
A: The binding signal (fold Kd increase vs 5'-P guide) was 12.

Q: With “GTTAGACTTTAAGTCAAT [5'-P guide DNA (G-guide)]” as the molecule, how does the Kd ([1]; 5 mM Mg2+, 5'-phosphate) read?
A: Its Kd is 31 nM.

Q: And the Kd ([1]; no Mg2+, 5'-phosphate)?
A: The Kd was 390 nM.

Q: Which Kd ([1]; 5 mM Mg2+, 5'-phosphate) does the source give for “GUUAGACUUUAAGUCAAU [guide RNA (G-guide-RNA)]” here?
A: The Kd was greater than 1000 nM.

B1: 3D-guide OH-gDNA (ssDNA)
DNA: TTACTGCACAGGTGACGA
modifications: 5'-OH
Q: Does B1 bind (PliAgo WT [3])?
A: Result: binds

B2: 3D-guide P-gDNA (ssDNA)
DNA: TTACTGCACAGGTGACGA
modifications: 5'-phosphate
Q: Does B2 bind (PliAgo WT [4])?
A: Result: binds
